Laboratory results: the supplement of paper PMC12764529
± gives the half width of the 95% confidence interval.

Columns and labels:
[1] = folding stability dG unfold (combined trypsin and chymotrypsin); higher = more stable
Outline: (§1)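 How resistant each design was to proteolysis was captured as K50, inferred by Bayesian fitting of sequencing counts. Unfolding free energy was then derived relative to a sequence-predicted unfolded-state K50 and a shared folded-state K50, per protease or combined. Digestion used trypsin and chymotrypsin at 11 threefold-diluted concentrations plus a no-protease condition, on mini-proteins under 80 residues without cysteine in a PA-tagged cDNA display construct. Designs were kept only when AlphaFold2 dimer inter-PAE was above 15.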

[2] = folding stability dG unfold from trypsin proteolysis; higher = more stable
Outline: as §1

[3] = folding stability dG unfold from chymotrypsin proteolysis; higher = more stable
Outline: as §1

Sequence	folding stability dG unfold [1]	folding stability dG unfold [2]	folding stability dG unfold [3]
SAGMKPGEKVKVTLTLTETRVEEVDGEKKVEKRTLTIEVTVEVSEEDREKALEEAEELARKLAEEGLIPSAG [r5_532_TrROS_Hall]	1.31 ± 0.28 kcal/mol	1.21 ± 0.15 kcal/mol	1.24 ± 0.07 kcal/mol
SAGGSAGGSAMIVKEFVTYDPSTGTRTRTTVTLELYDSPEGGAVVVLEEEVDPVGPLPPLESAGGSAGGSAG [r3_397_JUSTAS]	0.323 ± 0.12 kcal/mol	0.704 ± 0.062 kcal/mol	0.000665 ± 0.17 kcal/mol
SAGGSAGGSAGGSAGVIVSLSPAPPSADTVVELPKGVTVTVTTVNGERVLTTLVPEALLSAGGSAGGSAGGS [r10_355_JUSTAS]	0.217 ± 0.048 kcal/mol	0.365 ± 0.013 kcal/mol	0.00971 ± 0.032 kcal/mol
SAGGMTPEELREKAKKLAEELAKKLKEKYPNVKVEVEVDEETKKVKIKVKNKKTGKTYEITINLEELLSAGG [r13_354_TrROS_Hall]	4.09 ± 0.42 kcal/mol	3.85 ± 0.47 kcal/mol	3.94 ± 0.22 kcal/mol
SAGGMVEITATVGSPDPSLTDEEIAERILKELGLDPEIVEVTFLERRLVPDAAGRVRVVVEMKFLVPEKSAG [r5_528_JUSTAS]	4.73 ± 0.19 kcal/mol	4.77 ± 0.21 kcal/mol	4.26 ± 0.16 kcal/mol
SAGGSAGGSAGGKVVKKVKVLTKTPKGGYKVIEVDFTDPSAVVEEAKKAGLEVLKVEEVSAGGSAGGSAGGS [r10_882_TrMRF]	0.728 ± 0.098 kcal/mol	-0.045 ± 0.079 kcal/mol	1.05 ± 0.094 kcal/mol
SAMTITVTAPPGYTLNVTVTLAGGVPLTRTFSPSQSIDITIPEGTPFSLTVTTTAPGGEVATSTLTVPLSAG [r14_568_JUSTAS]	3.19 ± 0.094 kcal/mol	3.19 ± 0.12 kcal/mol	3.171 ± 0.018 kcal/mol
SAGGSAGGSEIKIEKAEITVEYDEETGVFRATITLPDGYRITAEFRLRPDGSLELTRVEIEEVSAGGSAGGS [r12_111_TrROS_Hall]	5.29 ± 0.25 kcal/mol	4.3 ± 0.19 kcal/mol	5.37 ± 0.11 kcal/mol
SAGGSAGGSWKPIPYKIKMTDGDGEKHEFPVQIWVAPEDGWVFIDFPNGHPFWIPANNIKIEPSAGGSAGGS [r12_256_TrROS]	1.4 ± 0.13 kcal/mol	0.66 ± 0.062 kcal/mol	1.88 ± 0.12 kcal/mol
SAGGSAGGSAGGSFDIEQERNPENGYHRVTIDFPNGPPVEIWMPPGSTLEQIEDLAKQFSAGGSAGGSAGGS [r4_205_TrROS]	0.878 ± 0.12 kcal/mol	1.07 ± 0.036 kcal/mol	0.658 ± 0.1 kcal/mol
SAGGSAGGSADGNTPVEVTITLTDPKTGAVTTVPVVLPTSVSVEEVAAELAAKFGLTTVTVTSAGGSAGGSA [r18_58_JUSTAS]	0.864 ± 0.037 kcal/mol	1.06 ± 0.027 kcal/mol	0.521 ± 0.04 kcal/mol
SAGGGDWYKVTVKVDGNPEVAEALVEKLLEEVGEEVVFEPRPGEQTVTFYVPKELLPLLEELGIEVEPSAGG [r13_156_TrMRF]	2.56 ± 0.13 kcal/mol	2.24 ± 0.11 kcal/mol	2.632 ± 0.02 kcal/mol
SAKLAKELAEELAKEILPKFPNIKAVKVEVEPLGDYAIATIIWEKENGKPIISKAIIEKNKKILKVDISSAG [r14_719_TrMRF]	1.19 ± 0.19 kcal/mol	1.02 ± 0.047 kcal/mol	1.26 ± 0.043 kcal/mol
SAGGSAGGSDFKPVLVIELDDKTVLVFELEDGTVLVLAENEIALIPASIPAEHFPEDAKLDLDSAGGSAGGS [r12_594_TrMRF]	1.85 ± 0.065 kcal/mol	2.04 ± 0.12 kcal/mol	1.76 ± 0.052 kcal/mol
SAGGSAGGSAKPTYRVLVKNEDGEVLEAEVKVVDGKVEVTVNGKVYTFPKGAKIEIVKIEPVSAGGSAGGSA [r18_144_TrROS_Hall]	3.08 ± 0.11 kcal/mol	3.34 ± 0.2 kcal/mol	2.92 ± 0.054 kcal/mol
SAGNRYEVNLTYMYPPDDPGLIEKIKKILRKLGWEIEKVKEQRMPDNKMRMVTHKIRIPGLPPEALKAFSAG [r14_956_TrROS]	1.31 ± 0.37 kcal/mol	0.918 ± 0.16 kcal/mol	1.27 ± 0.23 kcal/mol

Sequence	folding stability dG unfold [1]	folding stability dG unfold [2]	folding stability dG unfold [3]
SAGGSAGGSAMVVPRTYRVPPGLTVEEVADYLRAKDPNVIDATAERRPDGYLLVTVLVRLDSAGGSAGGSAG [r3_371_TrMRF]	1.69 ± 0.17 kcal/mol	1.21 ± 0.068 kcal/mol	2.07 ± 0.079 kcal/mol
SAGGSAGGSAGMLARITLSTPEKPVEYIVPESEVEEYIKKLNLPEDTEVTVTPVDPAALLSAGGSAGGSAGG [r17_395_JUSTAS]	1.4 ± 0.037 kcal/mol	0.574 ± 0.022 kcal/mol	1.8 ± 0.032 kcal/mol
SNYINEPIYVPPSVDPEEVKKKVEERVEEIKKKLGLPPNISVSVTPVALPEGSVTYRVTVTVDGETYNSSSA [r9_776_JUSTAS]	0.683 ± 0.15 kcal/mol	0.77 ± 0.1 kcal/mol	0.488 ± 0.17 kcal/mol
STSTTITYPTLTISVEESVLPDGTPRYTVTLHLPEKGVSIPVEVDSAAEAEEAVREAIRKLLPDETVEEESA [r9_749_JUSTAS]	2.23 ± 0.2 kcal/mol	2.24 ± 0.12 kcal/mol	2.24 ± 0.16 kcal/mol
MKPGETKTLTLTIVDEETGETYTVKVTVTYDEDTGVVTIKAEITYPDGRKFTVTARFNRETGELTEISIEPS [r1_144_TrROS_Hall]	4.32 ± 0.098 kcal/mol	3.96 ± 0.087 kcal/mol	4.44 ± 0.075 kcal/mol
SMSLVVSEEVDPATGTTTVTTTFPSPGVTVTATASAAGDSVTTTVTTTSPAPSAPTTTTTTTPVAPPGTDAS [r1_404_JUSTAS]	0.806 ± 0.087 kcal/mol	1.55 ± 0.067 kcal/mol	-0.3 ± 0.077 kcal/mol
SAGGSAGGSAMSVTATVPEKPVTLTYIPPNTVTKTVIDPSTGTTTTTEVNLPPGVVPASLLLSAGGSAGGSA [r18_59_JUSTAS]	0.14 ± 0.045 kcal/mol	0.313 ± 0.05 kcal/mol	-0.191 ± 0.13 kcal/mol
SAGGAVVTPETEGDRTFVTTTDPESGSRTVTVTTYDPTTNTATTTTYFVPPDGVPTRVATTTTPLPPTSAGG [r13_768_JUSTAS]	1.44 ± 0.13 kcal/mol	1.2 ± 0.077 kcal/mol	1.49 ± 0.097 kcal/mol
SAGGSAGGSMPLKLVELKPLEESTGENGVPTVRVELVLERPGERITVELEVSPEEIEALIKKLLSAGGSAGG [r6_379_JUSTAS]	1.56 ± 0.19 kcal/mol	2.03 ± 0.074 kcal/mol	1.07 ± 0.2 kcal/mol
SAGGKMSLEDIKEVKITKISEEELKKNGTIKIEIYNKNGKLIKTIEIKIKPVKVKDKDGKEKTLEELKSAGG [r13_864_TrROS_Hall]	1.29 ± 0.11 kcal/mol	0.897 ± 0.042 kcal/mol	1.49 ± 0.031 kcal/mol
SAGGSAGGSAGGMPPFVELEFVGEFKVNGEKVLVLRLPDGSIRIVNLKTGETITVPASLLSAGGSAGGSAGG [r7_28_JUSTAS]	2.57 ± 0.067 kcal/mol	2.33 ± 0.048 kcal/mol	2.67 ± 0.038 kcal/mol
SAGGMMYLKLKVKNKNGEEIEVLIEFDEKTGKAYIYNKKTGKKIEMTLEELLKQENIEIEEIEPLPEPSAGG [r13_994_TrROS_Hall]	4.07 ± 0.13 kcal/mol	2.89 ± 0.12 kcal/mol	4.29 ± 0.12 kcal/mol
SAMPIQIMVERDPDDGYIKVTIMFRSDSPEEAYELIETLFENLGVEVNIERYPEEGYFMIEVEIRLPPGSAG [r14_424_TrROS]	3.89 ± 0.21 kcal/mol	3.45 ± 0.23 kcal/mol	4.13 ± 0.33 kcal/mol
SAGGSASLFIPVPPTDTSPVTVEITIGNSKYRATLTVDPNNPNLMTVTLTDPNGGATTTETVPLLDSAGGSA [r15_328_JUSTAS]	1.79 ± 0.069 kcal/mol	1.8 ± 0.034 kcal/mol	1.78 ± 0.031 kcal/mol
SAGDGITVNPEKVTLTLDITLPDGTVLRVTVTLTPDGVEVTVEPVPVPPLPGATSPEEAEELLKQALASSAG [r5_272_TrMRF]	2.34 ± 0.083 kcal/mol	1.99 ± 0.09 kcal/mol	2.37 ± 0.086 kcal/mol
